Measurements published in paper PMC7949131.

Legend:
[1] = molecular target: rat HA-NK1R (neurokinin 1 receptor) (rat) (UniProt P14600)
[2] = molecular target: rat HA-NK1R (neurokinin 1 receptor) (rat) (UniProt P14600); remark: listed apart in the source
[3] = molecular target: rat HA-NK1R (neurokinin 1 receptor) (rat) (UniProt P14600); assay: high-content imaging fluorescent competition binding on cells; HEK-NK1R cells in 96-well plates, preincubated with Span or Span-Chol for 3.5 h, then 0.5 nM SP-TAMRA for a further 30 min (4 h in total), 37°C; granularity analysis, total cell binding (cell surface and intracellular); competitive binding, one site, fit logIC50
[4] = molecular target: rat HA-NK1R (neurokinin 1 receptor) (rat) (UniProt P14600); assay: high-content imaging fluorescent competition binding on cells; HEK-NK1R cells in 96-well plates, increasing concentrations of Span or Span-Chol with 0.5 nM SP-TAMRA, 30 min in total, 37°C; granularity analysis, total cell binding (cell surface and intracellular); competitive binding, one site, fit logIC50
[5] = molecular target: rat HA-NK1R (neurokinin 1 receptor) (rat) (UniProt P14600); remark: listed apart in the source

Sequence of UniProt P14600 (P14600 whole entry): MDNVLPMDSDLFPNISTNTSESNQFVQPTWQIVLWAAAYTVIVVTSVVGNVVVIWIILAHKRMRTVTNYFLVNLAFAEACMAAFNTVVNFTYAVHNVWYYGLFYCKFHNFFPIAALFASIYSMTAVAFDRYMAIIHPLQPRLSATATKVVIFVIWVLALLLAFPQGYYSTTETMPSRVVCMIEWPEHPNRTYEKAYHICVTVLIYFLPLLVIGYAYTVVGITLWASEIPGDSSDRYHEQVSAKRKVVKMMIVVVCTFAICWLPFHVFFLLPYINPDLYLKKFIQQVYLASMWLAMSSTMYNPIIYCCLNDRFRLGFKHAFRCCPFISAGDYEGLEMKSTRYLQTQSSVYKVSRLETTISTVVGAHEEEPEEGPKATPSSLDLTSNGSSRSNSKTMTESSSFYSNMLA

Row | inhibition of Ca^2+ transients to 1 nM SP in HEK-NK1R cells, 30 min preincubation with antagonist (blocks SP with NK1R); pIC50 [1] | inhibition of Ca^2+ transients to 1 nM SP in HEK-NK1R cells, continuous 4 h incubation with antagonist (blocks SP with NK1R); pIC50 [2] | pIC50 [3] | pIC50 [4] | inhibition of Ca^2+ transients to 1 nM SP in HEK-NK1R cells, pulsed administration (30 min antagonist, wash, 3.5 h; 4 h total) (blocks SP with NK1R); pIC50 [5] | Substance
1 | 4.87 | 5.11 | 5.55 | 5.99 | – | Spantide I (peptide)
2 | 6.25 | 6.36 | 6.5 | 6.28 | 6.15 | Spantide I conjugated to cholestanol via PEG linker (Span-Chol) (peptide)
